B1: Azoarcus group I ribozyme (parent)
chain: GUGCCUUGCGCCGGGAAACCACGCAAGGGAUGGUGUCAAAUUCGGCGAAACCUAAGCGCCCGCCCGGGCGUAUGGCAACGCCGAGCCAAGCUUCGGCGCCUGCGCCGAUGAAGGUGUAGAGACUAGACGGCACCCACCUAAGGCAAACGCUAUGGUGAAGGCAUAGUCCAGGGAGUGGCGAAAGUCACACAAACCGG

Variants of: B1
Experiment: reverse-splicing fitness (ratio to wild type); higher = more active; in vitro selection; Mg2+ level not given
Method in brief: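 An in vitro group I ribozyme library with randomized positions was T7-transcribed and gel-purified. In triplicate, 10 pmol RNA in EPPS pH 7.5 was reacted with 50 pmoles of a 30-nt RNA substrate for 1 h at 37 °C across several added MgCl2 levels (1–48 mM), then stopped with EDTA. Products were reverse transcribed from a substrate-complementary primer, PCR-amplified and sequenced (HiSeq 4000). Fitness is a variant's read proportion after selection over that before, normalised to wild type.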

Variant | reverse-splicing fitness
C82G A111G A145G C150U C169G | 0.0106
C82G A111G A145G C150G U176G | 0.00812
C82G A111G A145G C150G U176A | 0.0145
C82G A111G A145G C150G U176C | 0.026
C82G A111G A120U A145G C150U U176A | 0.0125
C82G A111G A120U A145G C150U U176C | 0.0196
C82G A111G A120U A145G C150U U176G | 0.00429
C82G A111G A145C C150A C169G U176C | 0.0122
C82G A111G A145C C150A C169G U176A | 0.0228
C82G A111G A145C C150A C169G U176G | 0.00577
C82G A111G A120U C150U U176G | 0.00497
C82G A111G A120U C150U U176A | 0.0115
C82G A111G A120U C150U U176C | 0.0164
C82G A111G A145G C150U C169U U176C | 0.0151
C82G A111G A145G C150U C169U U176A | 0.0152
C82G A111G A145G C150U C169U U176G | 0.00678
C82G A111G A120U A145U C150A C169G U176C | 0.00301
C82G A111G A120U A145U C150A C169G U176A | 0.00229
C82G A111G A120U A145U C150A C169G U176G | 0.00181
C82G A111G A120U C150U | 0.0348
C82G A111G A120U C150G | 0.00849

Variant | reverse-splicing fitness
C82G A111G A120U C150A | 0.00949
C82G A111G A120U C150U C169U U176G | 0.00214
C82G A111G A120U C150U C169U U176C | 0.0051
C82G A111G A120U C150U C169U U176A | 0.00523
C82G A111G A145U C150G C169A U176G | 0.00637
C82G A111G A145U C150G C169A U176C | 0.0155
C82G A111G A145U C150G C169A U176A | 0.0126
C82G A111G A120U A145G C150G U176A | 0.00561
C82G A111G A120U A145G C150G U176C | 0.00834
C82G A111G A120U A145G C150G U176G | 0.00375
C82G A111G A145C C169G U176C | 0.0131
C82G A111G A145C C169G U176A | 0.022
C82G A111G A145C C169G U176G | 0.00501
C82G A111G A145G C150A C169G U176G | 0.006
C82G A111G A145G C150A C169G U176A | 0.0196
C82G A111G A145G C150A C169G U176C | 0.0258
C82G A111G A120U A145U C169G U176C | 0.00235
C82G A111G A120U A145U C169G U176A | 0.0022
C82G A111G A120U A145U C169G U176G | 0.00156
C82G A111G A120U A145G C169A | 0.00466
C82G A111G A120U A145G C169U | 0.00538

Variant | reverse-splicing fitness
C82G A111G A120U A145G C169G | 0.00538
C82G A111G A120U C150U C169G U176A | 0.00758
C82G A111G A120U C150U C169G U176C | 0.00412
C82G A111G A120U C150U C169G U176G | 0.0024
C82G A111G A145C C150A C169A U176G | 0.00663
C82G A111G A145C C150A C169A U176A | 0.0136
C82G A111G A145C C150A C169A U176C | 0.00683
C82G A111G A145C C150G C169A U176C | 0.0105
C82G A111G A145C C150G C169A U176G | 0.00615
C82G A111G A145C C150G C169A U176A | 0.00983
C82G A111G A120U C150G U176G | 0.00299
C82G A111G A120U C150G U176A | 0.00529
C82G A111G A120U C150G U176C | 0.00821
C82G A111G A145G C150G C169A U176G | 0.0094
C82G A111G A145G C150G C169A U176C | 0.0146
C82G A111G A145G C150G C169A U176A | 0.015
C82G A111G A145U C150A C169G U176C | 0.0146
C82G A111G A145U C150A C169G U176A | 0.0149
C82G A111G A145U C150A C169G U176G | 0.00554
C82G A111G A145G C150A C169U U176G | 0.00674
C82G A111G A145G C150A C169U U176A | 0.0155

Variant | reverse-splicing fitness
C82G A111G A145G C150A C169U U176C | 0.0162
C82G A111G A145G C150U U176A | 0.174
C82G A111G A145G C150U U176G | 0.068
C82G A111G A145G C150U U176C | 0.213
C82G A111G A145U C150G C169G U176C | 0.00969
C82G A111G A145U C150G C169G U176A | 0.00911
C82G A111G A145U C150G C169G U176G | 0.00579
C82G A111G A120U C150A U176A | 0.0074
C82G A111G A120U C150A U176G | 0.00368
C82G A111G A120U C150A U176C | 0.00806
C82G A111G A120U C150U C169G | 0.00538
C82G A111G A120U C150U C169U | 0.00493
C82G A111G A120U C150U C169A | 0.00504
C82G A111G A145G C150A C169U | 0.0105
C82G A111G A145G C150A C169G | 0.00938
C82G A111G A145G C150A C169A | 0.011
C82G A111G A145G C169U U176A | 0.0132
C82G A111G A145G C169U U176G | 0.0049
C82G A111G A145G C169U U176C | 0.0155
C82G A111G A120U A145U C150G C169G | 0.003

Source: the RNAGym collection of RNA variant scans (doi:10.1093/molbev/msab373)
